Positions count from the first letter of the chain named.
What was measured:
[1] = biological target: T1, XPF L219R;ERCC1 wild type (hsERCC1) (Xenopus laevis;Homo sapiens?, UniProt A0A8J0PXV9;P07992 1-897;1-297, L219R|); experiment: fluorescence anisotropy; 2 mM Ca2+; comparable to wild type; 25 mM Hepes pH 8.0, 15% glycerol, 0.1 mg/ml BSA, 2 mM CaCl2, 10 nM DNA, 1 h at room temperature; conditions: protein: recombinant;recombinant; tags: FLAG;His; copies: 1;1; label: 5'-FAM on F1; three strands 1:1:1
T1 sequence 1: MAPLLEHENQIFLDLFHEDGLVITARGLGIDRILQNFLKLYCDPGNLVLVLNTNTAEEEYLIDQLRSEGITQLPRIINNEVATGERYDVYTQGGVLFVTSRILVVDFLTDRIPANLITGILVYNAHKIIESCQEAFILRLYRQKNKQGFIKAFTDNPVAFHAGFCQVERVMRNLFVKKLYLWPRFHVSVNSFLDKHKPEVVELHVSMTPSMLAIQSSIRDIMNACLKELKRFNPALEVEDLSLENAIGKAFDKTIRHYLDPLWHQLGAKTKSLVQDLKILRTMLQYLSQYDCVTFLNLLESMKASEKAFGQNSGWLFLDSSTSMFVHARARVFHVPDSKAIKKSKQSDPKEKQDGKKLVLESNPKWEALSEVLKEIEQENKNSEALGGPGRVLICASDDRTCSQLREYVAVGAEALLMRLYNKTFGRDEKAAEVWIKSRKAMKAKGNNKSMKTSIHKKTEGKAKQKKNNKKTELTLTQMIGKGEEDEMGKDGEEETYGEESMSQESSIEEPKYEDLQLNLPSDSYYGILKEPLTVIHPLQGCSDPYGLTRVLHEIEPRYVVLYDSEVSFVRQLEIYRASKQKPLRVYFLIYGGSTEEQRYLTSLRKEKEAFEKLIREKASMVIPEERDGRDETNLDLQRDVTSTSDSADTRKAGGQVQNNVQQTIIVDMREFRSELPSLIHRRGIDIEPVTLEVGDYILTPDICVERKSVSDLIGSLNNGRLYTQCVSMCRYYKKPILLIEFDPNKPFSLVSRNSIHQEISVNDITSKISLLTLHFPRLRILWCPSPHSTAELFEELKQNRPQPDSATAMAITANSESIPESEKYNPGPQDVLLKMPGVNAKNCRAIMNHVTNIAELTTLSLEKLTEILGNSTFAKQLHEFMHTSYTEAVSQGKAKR
T1 sequence 2: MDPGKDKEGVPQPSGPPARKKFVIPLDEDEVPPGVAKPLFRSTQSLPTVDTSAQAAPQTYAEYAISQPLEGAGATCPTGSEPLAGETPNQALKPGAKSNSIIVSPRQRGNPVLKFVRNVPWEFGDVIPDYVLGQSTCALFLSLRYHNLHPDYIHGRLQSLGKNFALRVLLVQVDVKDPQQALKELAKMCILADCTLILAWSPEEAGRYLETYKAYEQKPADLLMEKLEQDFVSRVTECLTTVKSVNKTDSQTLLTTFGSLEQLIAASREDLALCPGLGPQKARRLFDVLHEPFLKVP

[2] = biological target: T2, XPF R670S;ERCC1 wild type (hsERCC1) (Xenopus laevis;Homo sapiens?, UniProt A0A8J0PXV9;P07992 1-897;1-297, R670S|); experiment: as above; conditions: protein: recombinant;recombinant; tags: FLAG;His; copies: 1;1; label: 5'-FAM on F1; three strands 1:1:1
T2 sequence 1: T1 sequence 1 with R219L, R670S
T2 sequence 2: T1 sequence 2

B1: 3' flap DNA substrate (F1+F2+F3) (dsDNA)
DNA 1: CGCGATGCGGATCCAA
DNA 2: CCTAGACTTAAGAGGCCAGACTTGGATCCGCATCGC
DNA 3: GGCCTCTTAAGTCTAGG
B1: binds [1]; binds [2].
